In experiment [1] the target is T1, human plasmin (human, UniProt P00747 97-810, limits assumed).
T1 construct: also called plasmin-beads; plasmin-agarose beads
The experiment is described as follows: inhibition of plasmin hydrolysis of a fluorogenic substrate, tight-binding fit; measured Ki used as KD.

Experiment [2] addresses T1, human plasmin. The experiment is described as follows: binding of clonally pure display phage to plasmin relative to BPTI display phage.
In experiment [3] the target is T1, human plasmin. The experiment is described as follows: preliminary plasmin inhibition test; measured Ki used as KD.
Experiment [4] has as its target T1, human plasmin. As to the kind of experiment: inhibition of plasmin by soluble protein; measured Ki used as KD.
Experiment [5] addresses T1, human plasmin. The experiment is described as above. This is another data set of the same source.
In experiment [6] the target is T1, human plasmin. The experiment is described as follows: display phage binding to protease beads.
Experiment [7] concerns the target T1, human plasmin. As to the kind of experiment: display phage binding to immobilised protease.
Another experiment deals with Thrombin. The experiment is described as follows: display phage binding to immobilised protease.
Another experiment has as its target Kallikrein. The experiment is described as follows: display phage binding to immobilised protease.
Experiment [8] has as its target T2, Trypsin.
T2 construct: also called trypsin-agarose beads
The experiment is described as follows: display phage binding to immobilised protease.

The target of experiment [9] is T2, Trypsin. The experiment is described as follows: display phage binding to immobilised trypsin, 2 washes.
T2 sequence (P00760 24-246): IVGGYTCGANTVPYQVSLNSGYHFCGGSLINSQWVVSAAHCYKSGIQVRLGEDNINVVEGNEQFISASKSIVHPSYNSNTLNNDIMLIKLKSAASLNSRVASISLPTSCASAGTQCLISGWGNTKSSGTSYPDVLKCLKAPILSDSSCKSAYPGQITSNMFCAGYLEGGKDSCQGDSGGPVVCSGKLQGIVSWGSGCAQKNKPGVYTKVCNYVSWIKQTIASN

18 molecules from patent US20090036365A1 (DYAX, published 2009) can be followed below.

Substitutions are numbered along the chain they refer to.

T1 sequence (P00747 97-810 limits assumed): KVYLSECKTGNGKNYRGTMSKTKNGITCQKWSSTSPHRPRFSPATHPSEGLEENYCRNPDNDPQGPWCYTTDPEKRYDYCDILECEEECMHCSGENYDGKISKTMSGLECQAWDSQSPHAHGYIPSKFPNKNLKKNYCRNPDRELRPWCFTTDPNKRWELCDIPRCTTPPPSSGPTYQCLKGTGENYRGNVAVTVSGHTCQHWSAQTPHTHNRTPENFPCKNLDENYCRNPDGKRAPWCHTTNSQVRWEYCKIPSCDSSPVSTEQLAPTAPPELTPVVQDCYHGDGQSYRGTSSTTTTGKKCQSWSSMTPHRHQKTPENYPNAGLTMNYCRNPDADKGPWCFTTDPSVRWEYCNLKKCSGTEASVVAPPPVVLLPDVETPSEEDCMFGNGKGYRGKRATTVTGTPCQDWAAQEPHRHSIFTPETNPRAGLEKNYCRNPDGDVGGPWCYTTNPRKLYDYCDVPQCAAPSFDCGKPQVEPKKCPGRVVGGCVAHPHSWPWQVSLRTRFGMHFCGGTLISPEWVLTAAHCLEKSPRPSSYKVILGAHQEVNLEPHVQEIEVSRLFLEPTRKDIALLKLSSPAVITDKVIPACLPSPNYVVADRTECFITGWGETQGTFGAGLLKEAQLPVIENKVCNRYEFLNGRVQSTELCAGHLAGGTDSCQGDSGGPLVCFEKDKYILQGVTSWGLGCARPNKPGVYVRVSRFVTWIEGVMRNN
Sequence of Kallikrein (P03952 20-390, chain 1 of 2): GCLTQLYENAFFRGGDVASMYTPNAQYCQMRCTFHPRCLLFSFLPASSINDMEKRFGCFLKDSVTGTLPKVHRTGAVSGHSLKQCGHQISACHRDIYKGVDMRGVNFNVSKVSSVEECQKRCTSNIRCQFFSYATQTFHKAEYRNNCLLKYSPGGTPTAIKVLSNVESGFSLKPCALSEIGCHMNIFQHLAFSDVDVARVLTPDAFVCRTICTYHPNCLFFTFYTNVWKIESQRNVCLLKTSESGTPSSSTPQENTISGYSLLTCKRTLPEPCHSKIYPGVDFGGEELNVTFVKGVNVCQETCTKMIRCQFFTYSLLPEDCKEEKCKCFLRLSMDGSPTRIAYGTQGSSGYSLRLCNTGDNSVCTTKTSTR
Sequence of Kallikrein (P03952 391-638, chain 2 of 2): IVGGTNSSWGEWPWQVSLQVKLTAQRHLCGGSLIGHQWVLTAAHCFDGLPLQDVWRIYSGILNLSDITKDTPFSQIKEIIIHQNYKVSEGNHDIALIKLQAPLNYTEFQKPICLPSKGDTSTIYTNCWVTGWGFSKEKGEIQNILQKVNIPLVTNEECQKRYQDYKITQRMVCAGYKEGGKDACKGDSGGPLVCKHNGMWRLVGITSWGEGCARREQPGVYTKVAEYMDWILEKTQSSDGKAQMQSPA

B1: QS4, yeast-expressed soluble protein (designed binder)
chain: EAAEMHSFCAFKADDGPCKARFERFFFNIFTRQCEQFYYGGCDGNQNRFESLEECKKMCTRD
notes: Expressed in S. cerevisiae from a mat alpha fusion, purified on trypsin-agarose; also called QS4 variant
Molecule B1 returned a Kd in the experiment with human plasmin [1] of 2 nM.

B2: SPI08 (designed binder)
chain: MHSFCAFKADGGPCRARFERFFFNIFTRQCEEFIYGGCEGNQNRFESLEECKKMCTRD
notes: also called isolate 08
In the case of B2, the “Phage Binding (relative to BPTI phage)” value in the experiment with human plasmin [2] was 2.6 fold of BPTI phage.

B3: SPI05 (designed binder)
chain: B2 chain with D10E, G11S, R17K, E19A
notes: 105 for the printed residues 10-21
B3: the “Phage Binding (relative to BPTI phage)” value with human plasmin [2] was 0.64 fold of BPTI phage.

B4: SPI54 (designed binder)
chain: B2 chain with G11S, E19D, F21W, E31T, E32R, I34P, E39G
B4 showed a Kd with human plasmin [3] above 4 nM.

B5: SPI47 (designed binder)
chain: B2 chain with G11A, R17K
In turn, B5 registered a Kd with human plasmin [3] of around 0.8 nM.

B6: SPI22 (designed binder)
chain: B2 chain with R15K, A16G, R17K, E19P
notes: also called isolate 22
Take B6: the Kd with human plasmin [3] is above 2 nM. Moreover, in the experiment with human plasmin [2], the “Phage Binding (relative to BPTI phage)” value is 2 fold of BPTI phage.

B7: SPI03 (designed binder)
chain: B2 chain with G11S, R15K, E19D, F21W
notes: 108 for the printed residues 10-21
Regarding B7, the “Phage Binding (relative to BPTI phage)” value with human plasmin [2] was 0.48 fold of BPTI phage.

B8: SPI21 (designed binder)
chain: B2 chain with G11S, P13A, R15K, A16G, R17K, F21W
notes: 116 for the printed residues 10-21
Regarding B8, the “Phage Binding (relative to BPTI phage)” value in the experiment with human plasmin [2] was 0.38 fold of BPTI phage.

B9: SPI23 (designed binder)
chain: B2 chain with D10E, R17K, E19Q, F21W
notes: also called isolate 23
Take B9: in the experiment with human plasmin [3], the Kd was around 0.5 nM. Also, the “Phage Binding (relative to BPTI phage)” value with human plasmin [2] is 1.25 fold of BPTI phage.

B10: SPI51 (designed binder)
chain: B2 chain with G11A, R17K, E31T, E32A, I34F, E39G
The molecule B10 came in with a Kd with human plasmin [3] of around 0.5 nM.

B11: SPI17 (designed binder)
chain: B2 chain with D10E, G11V, F18I, E19Q
notes: 104 for the printed residues 10-21
As for B11, the “Phage Binding (relative to BPTI phage)” value in the experiment with human plasmin [2] is 0.09 fold of BPTI phage.

B12: SPI11 (Selected Plasmin Inhibitor#11) (designed binder)
chain: B2 chain with D10E, G11T, E19D, F21W
notes: also called isolate 11
Consider B12, for which the Kd with human plasmin [4] and with human plasmin [5] was 0.088 nM each time. The “Phage Binding (relative to BPTI phage)” value with human plasmin [2] is 3.2 fold of BPTI phage.

B13: SPI02 (designed binder)
chain: B2 chain with G11S, A16G
notes: 102 for the printed residues 10-21
Consider B13, for which the “Phage Binding (relative to BPTI phage)” value with human plasmin [2] is 0.83 fold of BPTI phage.

B14: SPI15 (designed binder)
chain: B2 chain with D10E, G11S, E19D, F21W
notes: 41 for the whole domain; 90 for the printed residues 10-21; also called SP115; isolate 15
Consider B14, for which, in the experiment with human plasmin [2], the “Phage Binding (relative to BPTI phage)” value is 2.5 fold of BPTI phage.

B15: SPI01 (designed binder)
chain: B2 chain with G11S, P13A, R17M, E19H
notes: 112 for the printed residues 10-21
As to B15, the “Phage Binding (relative to BPTI phage)” value with human plasmin [2] is 0.25 fold of BPTI phage.

B16: SPI43 (designed binder)
chain: MHSFCAFKAETGPCRGKFDRWFFNIFTRQCESFHYGGCKGNQNRFESLEECKKMCTRD
With B16, the Kd in the experiment with human plasmin [3] was above 4 nM.

B17: SPI16 (designed binder)
chain: B2 chain with D10E, G11V, P13A, R15K, A16G, E19H, F21W
notes: 110 for the printed residues 10-21
For B17, in the experiment with human plasmin [2], the “Phage Binding (relative to BPTI phage)” value was 0.22 fold of BPTI phage.

B18: QS4 displayed on gIIIp of M13 (designed binder)
chain: B2 chain with G11D, R15K, E32Q, I34Y, E39D
notes: also called phage that display the LACI-K1 derivative QS4
In the case of B18, in the experiment with human plasmin [6], the “fold binding to plasmin beads over other protease targets” value was at least 50 fold. Moreover, the “relative binding (LACI-K1 phage = unit)” value with human plasmin [7] was 52 fold of LACI-K1 phage; with Thrombin, 0.7 fold of LACI-K1 phage; with Kallikrein, 0.9 fold of LACI-K1 phage; with Trypsin [8] it was 4.5 fold of LACI-K1 phage; with Trypsin [9], 0.5 fold of LACI-K1 phage.

Usually Kd stands for a measure of binding affinity in units of concentration.
